Biological target: T1, human BCMA on cells (HEK293T/huBCMA; NCI-H929) (human, UniProt Q02223 1-184)
T1 construct: whole, on cells; also called human BCMA molecules on NCI-H929 cell line
T1 sequence (looked up): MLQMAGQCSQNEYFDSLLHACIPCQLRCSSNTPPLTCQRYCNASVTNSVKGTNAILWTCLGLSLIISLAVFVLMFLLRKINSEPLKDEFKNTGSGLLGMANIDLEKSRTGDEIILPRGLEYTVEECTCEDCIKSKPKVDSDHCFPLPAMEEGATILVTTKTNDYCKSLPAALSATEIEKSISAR
Assay: FACS on HEK293T/huBCMA cells
Excerpt: To study the in vitro binding activity of the BCMA arm of the BCMA×CD3 bispecific antibody, HEK293T cell strain overexpressing human BCMA (HEK293T/huBCMA) and HEK293T cell strain overexpressing cynomolgus monkey BCMA (HEK293T/cynoBCMA) were used for antibody binding experiments at cellular level. Briefly, HEK293T/huBCMA cells and HEK293T/cynoBCMA cells were digested and resuspended with DMEM complete medium. The cell density of the two was adjusted to 1×10⁶ cells/mL, respectively. Cells were inoculated at 100 μL cells/well in a 96 well V-bottom plate (Corning, Cat#: 3894), followed by the addition of test antibodies at 100 μL/well, which is gradient diluted at 3 folds of the concentration with 2 folds of the final concentration. Cells were incubated at 4° C. for 1 hour in the dark. Afterwards, the cells were washed twice with 100 μL/well of pre-cooled PBS, centrifuged at 500 g for 5 min at 4° C., and followed by discarding the supernatant. 100 μL/well of fluorescent secondary antibody (Alexa Fluor 488-conjugated AffiniPure Goat Anti-Human IgG, Fcγ Fragment Specific, Jackson, Cat#: 109-545-06, 1:500 dilution) was added and incubated for 30 min at 4° C. in the dark. […] Finally, the cells were resuspended with 200 μL/well of pre-cooled PBS, and the fluorescence luminescence signal values were read by BD FACS CANTOII. […]

B1: BCMA x CD3 bispecific antibody PR003178 (bispecific antibody, human IgG1, lambda, L234A L235A)
heavy 1: not shown
light: QAVVTQEPSLTVSPGGTVTLTCRSSTGAVTTSNYANWVQQKPGQAPRGLIGGTNKRAPWTPARFSGSLLGDKAALTLLGAQPEDEAEYFCALWYSNLWVFGGGTKLTVLGQPKAAPSVTLFPPSSEELQANKATLVCLISDFYPGAVTVAWKADSSPVKAGVETTTPSKQSNNKYAASSYLSLTPEQWKSHRSYSCQVTHEGSTVEKTVAPTECS
heavy 2: EVQLVETGGGLIQPGGSLRLSCAASGFTVSDNYMTWVRQAPGKGLEWVSVIFSGGNTYYADSVKGRFTISRDNAKNTLYLQMNSLRAEDTALYYCARRNYDDTRGTDVFDIWGQGTMVTVSSGGGGSGGGGSGGGGSEVQLVETGGGLIQPGGSLRLSCAASGFTVSDNYMTWVRQAPGKGLEWVSVIFSGGNTYYADSVKGRFTISRDNAKNTLYLQMNSLRAEDTALYYCARRNYDDTRGTDVFDIWGQGTMVTVSSASEPKSSDKTHTCPPCPAPEAAGGPSVFLFPPKPKDTLMISRTPEVTCVVVDVSHEDPEVKFNWYVDGVEVHNAKTKPREEQYNSTYRVVSVLTVLHQDWLNGKEYKCKVSNKALPAPIEKTISKAKGQPREPQVCTLPPSREEMTKNQVSLSCAVKGFYPSDIAVEWESNGQPENNYKTTPPVLDSDGSFFLVSKLTVDKSRWQQGNVFSCSVMHEALHNHYTQKSLSLSPGK
notes: Three chains: HC1 (anti-CD3 heavy, knob, LALA), LC (anti-CD3 lambda light), HC2 (two tandem anti-BCMA VH of PR001046 joined by (G4S)3, then Fc hole, LALA); also called PRO03178
In the case of B1, the “fold lower EC50 than positive control 2” value is reported as roughly 5 fold.
